Assay [1] addresses human factor D (purified from human serum) (human) (UniProt P00746). Put plainly: cell-based or functional assay.
Assay [2] has as its target dog factor D (in dog serum) (dog). The assay is described as follows: cell-based or functional assay. The conditions noted are these: scale: times less effective than on human factor D.

Where only a bound is given, the exact number is not on record here.

Chain of UniProt P00746 (P00746 26-253 N180D): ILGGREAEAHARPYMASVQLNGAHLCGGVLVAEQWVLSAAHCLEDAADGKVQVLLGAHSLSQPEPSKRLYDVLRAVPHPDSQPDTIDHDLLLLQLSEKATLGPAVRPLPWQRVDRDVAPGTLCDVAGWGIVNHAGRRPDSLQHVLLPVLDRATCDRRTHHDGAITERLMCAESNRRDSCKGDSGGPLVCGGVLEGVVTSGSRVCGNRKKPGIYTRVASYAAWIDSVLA

Turning to MAb 166-32 (antibody), in assay [1], the alternative pathway hemolytic activity of plasma from extracorporeal circuits (18 µg/ml antibody in human whole blood) (molar ratio (MAb:factor D)) was found to be 1.5 and the inhibition of factor D dependent alternative pathway hemolysis of unsensitized rabbit RBCs (factor D depleted serum with supplemented factor D) stood at 0.3 µg/mL. In assay [2], this substance had a neutralization of dog factor D in hemolytic assays, compared to human factor D of over 10.

For the origin of these results see patent US20120322975A1.
